According to publication PMC11832770, “NADH-bound AIF activates the mitochondrial CHCHD4/MIA40 chaperone by a substrate-mimicry mechanism” (The EMBO Journal, 2025):

B4: CHCHD4-SPS (C53S/C55S), full length (natural protein, human, UniProt Q8N4Q1 1-142, looked up)
chain: MSYCRQEGKDRIIFVTKEDHETPSSAELVADDPNDPYEEHGLILPNGNINWNSPSLGGMASGPCGEQFKSAFSCFHYSTEEIKGSDCVDQFRAMQECMQKYPDLYPQEDEDEEEEREKKPAEQAEETAPIEATATKEEEGSS
notes: source: E. coli Rosetta2Gami(DE3), purified (Ni-NTA, PreScission cleavage, subtractive Ni-NTA, Superdex 75); not shown: GB1-6X-His, N-terminal, cleaved

What was measured:
[1] = target: T1, CHCHD6, unfolded and reduced (human, UniProt Q9BRQ6 1-235); experiment: ITC; 700-750 µM CPC-inactivated CHCHD4 constructs titrated into 50 µM unfolded substrate; 25 mM HEPES pH 7.5, 150 mM NaCl, 1 mM TCEP; 25 °C; settings: both partners purified
T1 construct: CHCHD6 (MIC25), human, CX9C import substrate; construct from the DNASU Plasmid Repository inserted into pET30a; also called unfolded CHCHD6 substrate; MIC25; source: E. coli Rosetta2Gami(DE3), purified; unfolded by heating at 70 °C for 20 min with TCEP; not shown: GB1-6X-His, N-terminal, cleaved
T1 sequence (looked up): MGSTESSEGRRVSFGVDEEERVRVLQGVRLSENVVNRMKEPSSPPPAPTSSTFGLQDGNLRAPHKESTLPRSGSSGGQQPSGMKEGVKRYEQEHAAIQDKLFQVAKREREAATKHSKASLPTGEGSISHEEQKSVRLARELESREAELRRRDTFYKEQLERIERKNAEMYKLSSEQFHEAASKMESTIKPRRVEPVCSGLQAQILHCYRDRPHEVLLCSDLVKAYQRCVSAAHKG

[2] = target: the molecule itself; experiment: SEC; Superdex 75 10/300, 25 mM HEPES pH 7.5, 150 mM NaCl, without reducing agent (also ± 5 mM βME and after 0-10 mM TCEP); 200 µM samples; monomer against disulfide-mediated dimer
[3] = target: T2, CHCHD4-SPS (C53S/C55S), full length (human, UniProt Q8N4Q1 1-142, C53S | C55S, heat-unfolded and TCEP-reduced (free cysteines). The printed accession E5RGN4 is not among the candidates; the canonical human CHCHD10 entry Q8WYQ3 (used for the AlphaFold model) is taken instead. …); experiment: ITC
T2 sequence: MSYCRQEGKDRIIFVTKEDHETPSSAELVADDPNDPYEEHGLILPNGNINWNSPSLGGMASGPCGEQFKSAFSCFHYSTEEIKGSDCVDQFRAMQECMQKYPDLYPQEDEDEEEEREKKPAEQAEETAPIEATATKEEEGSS

[4] = target: T3, ΔN-CHCHD4-SPS (residues 40-142, C53S/C55S) (human, UniProt Q8N4Q1 40-142, C53S | C55S, heat-unfolded and TCEP-reduced (free cysteines). The printed accession E5RGN4 is not among the candidates; the canonical human CHCHD10 entry Q8WYQ3 (used for the AlphaFold model) is taken instead. …); experiment: ITC
T3 sequence: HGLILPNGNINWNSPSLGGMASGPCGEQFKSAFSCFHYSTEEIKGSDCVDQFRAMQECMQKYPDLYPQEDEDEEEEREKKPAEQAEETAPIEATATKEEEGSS

[5] = target: T4, CHCHD4-AIA-A-SPS (I12A/F14A/H20A/C53S/C55S) (human, UniProt Q8N4Q1 1-142, I12A | F14A | H20A | C53S | C55S, heat-unfolded and TCEP-reduced (free cysteines). The printed accession E5RGN4 is not among the candidates; the canonical human CHCHD10 entry Q8WYQ3 (used for the AlphaFold model) is taken instead. …); experiment: ITC
T4 sequence: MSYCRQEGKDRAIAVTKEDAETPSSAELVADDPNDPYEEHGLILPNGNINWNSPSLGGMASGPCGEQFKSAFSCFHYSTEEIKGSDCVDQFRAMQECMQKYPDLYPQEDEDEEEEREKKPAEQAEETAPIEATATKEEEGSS

Atto488-AIF(78-613)/NADH [6] = target: T5, Atto488-AIF(78-613)/NADH (human, UniProt O95831 78-613, ATTO 488 (NHS ester) on the N-terminus); experiment: MST; CHCHD4 constructs titrated (1.8 nM–15 or 30 µM) into 100 nM Atto488-AIF(78-613) with unlabeled AIF and NADH (pre-formed charge-transfer complex); 25 mM HEPES pH 7.5, 150 mM NaCl, 0.01% Tween-20, 5 mM TCEP; 25 °C; first block of Table 1 (Fig. 1B); settings: both partners purified
T5 construct: Apoptosis-inducing factor (AIF), human, residues 78-613; also called Atto488-AIF-NADH; Atto488-AIF/NADH

both import substrates = experiment: ITC; 700-750 µM CPC-inactivated CHCHD4 constructs titrated into 50 µM unfolded substrate; 25 mM HEPES pH 7.5, 150 mM NaCl, 1 mM TCEP; 25 °C
Atto488-AIF(78-613)/NADH [7] = target: T5, Atto488-AIF(78-613)/NADH; experiment: MST; CHCHD4 interface mutants titrated (1.8 nM–15 or 30 µM) into 100 nM Atto488-AIF(78-613) with unlabeled AIF and NADH; same buffer, 25 °C; third block of Table 1 (Fig. 2A), fitted with a Hill coefficient; settings: both partners purified
[8] = target: B4; experiment: MST; CHCHD4-SPS titrated (15 nM–30 µM) into 100 nM unfolded Atto488-ΔN-CHCHD4-SPS in the presence of AIF(78-613) and NADH (2x stock 30 µM AIF/300 µM NADH); 25 mM HEPES pH 7.5, 150 mM NaCl, 0.01% Tween-20, 5 mM TCEP; 25 °C; a sample with added CHCHD4-N45 showed decreased binding; settings: both partners purified
AIF(104-613)-W196A = target: T6, AIF(104-613)-W196A (human, UniProt O95831 104-613, W196A); experiment: crystal structure; AIF(104-613)-W196A-CHCHD4(1-45) chimera, hanging drop, 0.1 M HEPES pH 8, 0.1 M NaCl, 18% PEG3350; CHCHD4 N45 linked to the C-terminus of AIF by …; AIF dimer with N45 resolved on both monomers; settings: both partners purified
T6 construct: Apoptosis-inducing factor (AIF), human, residues 104-613; Stands only for the AIF half of the crystallised chimera, so that the AIF-CHCHD4 contact can be written as a pair; also called dimer-permissive AIF (104-613) W196A mutant; source: E. coli Rosetta2(DE3), purified, as the AIF part of the chimera m17

[9] = target: T7, ΔN-CHCHD4-SPS (residues 40-142, C53S/C55S) (human, UniProt Q8N4Q1 40-142, C53S | C55S); experiment: ITC
T7 sequence: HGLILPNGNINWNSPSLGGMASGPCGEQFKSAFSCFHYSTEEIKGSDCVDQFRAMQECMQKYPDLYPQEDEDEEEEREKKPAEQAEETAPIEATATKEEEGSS

[10] = target: T8, CHCHD4-SPS (C53S/C55S), full length (human, UniProt Q8N4Q1 1-142, C53S | C55S); experiment: ITC
T8 sequence: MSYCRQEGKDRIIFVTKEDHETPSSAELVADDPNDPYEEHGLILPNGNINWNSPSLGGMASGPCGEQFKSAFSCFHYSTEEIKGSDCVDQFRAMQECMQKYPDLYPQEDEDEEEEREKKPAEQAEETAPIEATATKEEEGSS

[11] = target: T9, CHCHD4-AIA-A-SPS (I12A/F14A/H20A/C53S/C55S) (human, UniProt Q8N4Q1 1-142, I12A | F14A | H20A | C53S | C55S); experiment: ITC
T9 sequence: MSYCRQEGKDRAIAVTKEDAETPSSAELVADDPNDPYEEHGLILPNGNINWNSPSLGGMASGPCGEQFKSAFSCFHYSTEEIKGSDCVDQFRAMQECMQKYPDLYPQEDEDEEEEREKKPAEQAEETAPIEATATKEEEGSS

T5 sequence (O95831 78-613): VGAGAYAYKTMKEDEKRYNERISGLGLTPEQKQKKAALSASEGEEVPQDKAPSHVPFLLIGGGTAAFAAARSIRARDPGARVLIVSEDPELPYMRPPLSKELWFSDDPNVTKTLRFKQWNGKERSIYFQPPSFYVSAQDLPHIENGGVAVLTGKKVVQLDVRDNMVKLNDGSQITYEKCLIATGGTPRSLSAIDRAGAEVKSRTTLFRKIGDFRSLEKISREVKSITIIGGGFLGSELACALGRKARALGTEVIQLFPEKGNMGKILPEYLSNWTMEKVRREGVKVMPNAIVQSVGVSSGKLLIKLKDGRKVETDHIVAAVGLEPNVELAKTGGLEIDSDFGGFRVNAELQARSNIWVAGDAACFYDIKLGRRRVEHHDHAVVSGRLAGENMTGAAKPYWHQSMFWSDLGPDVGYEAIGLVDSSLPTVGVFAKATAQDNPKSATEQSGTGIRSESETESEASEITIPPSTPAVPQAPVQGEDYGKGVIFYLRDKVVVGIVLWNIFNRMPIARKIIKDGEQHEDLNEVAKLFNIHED
T6 sequence (O95831 104-613 W196A): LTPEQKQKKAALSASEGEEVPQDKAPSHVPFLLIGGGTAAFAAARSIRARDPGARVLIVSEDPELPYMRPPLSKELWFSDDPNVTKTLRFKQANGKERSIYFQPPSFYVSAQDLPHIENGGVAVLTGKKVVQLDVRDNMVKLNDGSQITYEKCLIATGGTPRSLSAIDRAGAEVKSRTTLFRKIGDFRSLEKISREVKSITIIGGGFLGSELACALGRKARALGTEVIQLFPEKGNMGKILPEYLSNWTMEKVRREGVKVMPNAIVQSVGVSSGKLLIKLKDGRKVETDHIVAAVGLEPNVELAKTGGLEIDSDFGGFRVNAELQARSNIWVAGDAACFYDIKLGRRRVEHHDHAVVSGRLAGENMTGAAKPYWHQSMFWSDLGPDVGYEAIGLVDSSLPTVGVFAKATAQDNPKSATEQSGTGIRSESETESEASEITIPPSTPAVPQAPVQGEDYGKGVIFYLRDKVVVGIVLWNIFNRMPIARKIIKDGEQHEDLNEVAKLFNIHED

B1: ΔN-CHCHD4-SPS (residues 40-142, C53S/C55S) (domain or fragment, human, UniProt Q8N4Q1 40-142, looked up)
chain: HGLILPNGNINWNSPSLGGMASGPCGEQFKSAFSCFHYSTEEIKGSDCVDQFRAMQECMQKYPDLYPQEDEDEEEEREKKPAEQAEETAPIEATATKEEEGSS
notes: Folded, as titrant in ITC and in analytical SEC; also called ΔN-SPS; source: E. coli Rosetta2Gami(DE3), purified (Ni-NTA, PreScission cleavage, subtractive Ni-NTA, Superdex 75); not shown: GB1-6X-His, N-terminal, cleaved
[1]
  binding result: binds

B2: ΔN-CHCHD4 (residues 40-142) (domain or fragment, human, UniProt Q8N4Q1 40-142, looked up)
chain: HGLILPNGNINWNCPCLGGMASGPCGEQFKSAFSCFHYSTEEIKGSDCVDQFRAMQECMQKYPDLYPQEDEDEEEEREKKPAEQAEETAPIEATATKEEEGSS
notes: also called N-terminal truncation mutant; source: E. coli Rosetta2Gami(DE3), purified (Ni-NTA, PreScission cleavage, subtractive Ni-NTA, Superdex 75); not shown: GB1-6X-His, N-terminal, cleaved
[2]
  binding result: binds

B3: CHCHD10, unfolded and reduced (natural protein)
chain: MPRGSRSAASRPASRPAAPSAHPPAHPPPSAAAPAPAPSGQPGLMAQMATTAAGVAVGSAVGHVMGSALTGAFSGGSSEPSQPAVQQAPTPAAPQPLQMGPCAYEIRQFLDCSTTQSDLSLCEGFSEALKQCKYYHGLSSLP
[3]
  Kd: 20.4 µM
[4]
  Kd: 6.4 µM
[5]
  Kd: 4.5 µM

## B4
Atto488-AIF(78-613)/NADH [6]
  Kd: 0.23 µM
Both import substrates
  Kd: 18 to 40 µM

B5: CHCHD4, wild type, full length (natural protein, human, UniProt Q8N4Q1 1-142, looked up)
chain: MSYCRQEGKDRIIFVTKEDHETPSSAELVADDPNDPYEEHGLILPNGNINWNCPCLGGMASGPCGEQFKSAFSCFHYSTEEIKGSDCVDQFRAMQECMQKYPDLYPQEDEDEEEEREKKPAEQAEETAPIEATATKEEEGSS
notes: also called CHCHD4-WT; MIA40; source: E. coli Rosetta2Gami(DE3), purified (Ni-NTA, PreScission cleavage, subtractive Ni-NTA, Superdex 75); not shown: GB1-6X-His, N-terminal, cleaved
Atto488-AIF(78-613)/NADH [7]
  Kd: 0.18 µM
Atto488-AIF(78-613)/NADH [6]
  Kd: 0.58 µM

B6: CHCHD4-L28D (natural protein, human, UniProt Q8N4Q1 1-142, looked up)
chain: MSYCRQEGKDRIIFVTKEDHETPSSAEDVADDPNDPYEEHGLILPNGNINWNCPCLGGMASGPCGEQFKSAFSCFHYSTEEIKGSDCVDQFRAMQECMQKYPDLYPQEDEDEEEEREKKPAEQAEETAPIEATATKEEEGSS
notes: CHCHD4/MIA40, human, full length; source: E. coli Rosetta2Gami(DE3), purified (Ni-NTA, PreScission cleavage, subtractive Ni-NTA, Superdex 75); not shown: GB1-6X-His, N-terminal, cleaved
Atto488-AIF(78-613)/NADH [7]
  Kd: 0.24 µM

B7: Atto488-ΔN-CHCHD4-SPS, unfolded (domain or fragment, human, UniProt Q8N4Q1 40-142, looked up)
chain: HGLILPNGNINWNSPSLGGMASGPCGEQFKSAFSCFHYSTEEIKGSDCVDQFRAMQECMQKYPDLYPQEDEDEEEEREKKPAEQAEETAPIEATATKEEEGSS
modifications: ATTO 488 (NHS ester) on the N-terminus
notes: also called unfolded CHCH substrate; unfolded fluorescent substrate; not shown: GB1-6X-His, N-terminal, cleaved
[8]
  binding result: binds

B8: CHCHD4-AIA (I12A/F14A) (natural protein, human, UniProt Q8N4Q1 1-142, looked up)
chain: MSYCRQEGKDRAIAVTKEDHETPSSAELVADDPNDPYEEHGLILPNGNINWNCPCLGGMASGPCGEQFKSAFSCFHYSTEEIKGSDCVDQFRAMQECMQKYPDLYPQEDEDEEEEREKKPAEQAEETAPIEATATKEEEGSS
notes: CHCHD4/MIA40, human, full length; The methods print F12A/I14A for this mutant; the results print I12A/F14A; also called β-hairpin mutant; source: E. coli Rosetta2Gami(DE3), purified (Ni-NTA, PreScission cleavage, subtractive Ni-NTA, Superdex 75); not shown: GB1-6X-His, N-terminal, cleaved
Atto488-AIF(78-613)/NADH [7]
  Kd: 3 µM

B9: CHCHD4-AIA-A-SPS (I12A/F14A/H20A/C53S/C55S) (natural protein, human, UniProt Q8N4Q1 1-142, looked up)
chain: MSYCRQEGKDRAIAVTKEDAETPSSAELVADDPNDPYEEHGLILPNGNINWNSPSLGGMASGPCGEQFKSAFSCFHYSTEEIKGSDCVDQFRAMQECMQKYPDLYPQEDEDEEEEREKKPAEQAEETAPIEATATKEEEGSS
notes: as for B6
[1]
  binding result: binds

B10: CHCHD4-N45 (residues 1-45) (domain or fragment, human, UniProt Q8N4Q1 1-45, looked up)
chain: MSYCRQEGKDRIIFVTKEDHETPSSAELVADDPNDPYEEHGLILP
notes: In the crystal structure (PDB 8VGY) the same residues 1-45 stood linked to the C-terminus of AIF(104-613)-W196A; also called CHCHD4(1-45); source: E. coli Rosetta2Gami(DE3), purified (Ni-NTA, PreScission cleavage, subtractive Ni-NTA, Superdex 75); not shown: GB1-6X-His, N-terminal, cleaved
Atto488-AIF(78-613)/NADH [6]
  Kd: 0.63 µM
AIF(104-613)-W196A
  binding result: binds

B11: CHCHD6, unfolded and reduced (natural protein)
chain: MGSTESSEGRRVSFGVDEEERVRVLQGVRLSENVVNRMKEPSSPPPAPTSSTFGLQDGNLRAPHKESTLPRSGSSGGQQPSGMKEGVKRYEQEHAAIQDKLFQVAKREREAATKHSKASLPTGEGSISHEEQKSVRLARELESREAELRRRDTFYKEQLERIERKNAEMYKLSSEQFHEAASKMESTIKPRRVEPVCSGLQAQILHCYRDRPHEVLLCSDLVKAYQRCVSAAHKG
[9]
  Kd: 14.9 µM
[10]
  Kd: 26.5 µM
[11]
  Kd: 8.3 µM
